In article PMC8582233:

Molecular target: Recombinant SARS-CoV-2 S trimer (SARS-CoV-2) (UniProt P0DTC2)
Assay: MST

| Substance | Kd [nM] |
| --- | --- |
| Recombinant DC-SIGN/CD209 (from UniProt Q9NNX6 1-404) (receptor) | 28.8 |
| Recombinant L-SIGN/CD299 (from UniProt Q9H2X3 1-399) (receptor) | 43.7 |
